Data on 19 molecules can be found in US20090105152A1.

B1: des(1)-Ac-[D-Tyr2,Glu3,Thr5,Phe(2F)6,AzaGly7,Arg(Me)9,Trp10]MS10 (peptide)
peptide: Ac-[dY]ENT[Phe(2-F)][azaGly]L[Arg(Me)]W-NH2
SMILES: CNC(=N)NCCC[C@H](NC(=O)[C@H](CC(C)C)NC(=O)NNC(=O)[C@H](Cc1ccccc1F)NC(=O)[C@@H](NC(=O)[C@H](CC(N)=O)NC(=O)[C@H](CCC(=O)O)NC(=O)[C@@H](Cc1ccc(O)cc1)NC(C)=O)[C@@H](C)O)C(=O)N[C@@H](Cc1c[nH]c2ccccc12)C(N)=O
B2: des(1)-Ac-[D-Tyr2,Leu3,Thr5,AzaGly7,Arg(Me)9,Trp10]MS10 (peptide)
peptide: Ac-[dY]LNTF[azaGly]L[Arg(Me)]W-NH2
SMILES: CNC(=N)NCCC[C@H](NC(=O)[C@H](CC(C)C)NC(=O)NNC(=O)[C@H](Cc1ccccc1)NC(=O)[C@@H](NC(=O)[C@H](CC(N)=O)NC(=O)[C@H](CC(C)C)NC(=O)[C@@H](Cc1ccc(O)cc1)NC(C)=O)[C@@H](C)O)C(=O)N[C@@H](Cc1c[nH]c2ccccc12)C(N)=O
B3: des(1)-Ac-[D-Tyr2,Lys3,Thr5,AzaGly7,Arg(Me)9,Trp10]MS10 (peptide)
peptide: Ac-[dY]KNTF[azaGly]L[Arg(Me)]W-NH2
SMILES: CNC(=N)NCCC[C@H](NC(=O)[C@H](CC(C)C)NC(=O)NNC(=O)[C@H](Cc1ccccc1)NC(=O)[C@@H](NC(=O)[C@H](CC(N)=O)NC(=O)[C@H](CCCCN)NC(=O)[C@@H](Cc1ccc(O)cc1)NC(C)=O)[C@@H](C)O)C(=O)N[C@@H](Cc1c[nH]c2ccccc12)C(N)=O
B4: des(1-3)-Decanoyl-[Thr5,AzaGly7,Arg(Me)9,Trp10]MS10 (peptide)
peptide: Decanoyl-NTF[azaGly]L[Arg(Me)]W-NH2
SMILES: CCCCCCCCCC(=O)N[C@@H](CC(N)=O)C(=O)N[C@H](C(=O)N[C@@H](Cc1ccccc1)C(=O)NNC(=O)N[C@@H](CC(C)C)C(=O)N[C@@H](CCCNC(=N)NC)C(=O)N[C@@H](Cc1c[nH]c2ccccc12)C(N)=O)[C@@H](C)O
B5: des(1)-Ac-[D-Tyr2,D-Trp3,Thr5,Phe(3F)6,AzaGly7,Arg(Me)9,Trp10]MS10 (peptide)
peptide: Ac-[dY][dW]NT[Phe(3-F)][azaGly]L[Arg(Me)]W-NH2
SMILES: CNC(=N)NCCC[C@H](NC(=O)[C@H](CC(C)C)NC(=O)NNC(=O)[C@H](Cc1cccc(F)c1)NC(=O)[C@@H](NC(=O)[C@H](CC(N)=O)NC(=O)[C@@H](Cc1c[nH]c2ccccc12)NC(=O)[C@@H](Cc1ccc(O)cc1)NC(C)=O)[C@@H](C)O)C(=O)N[C@@H](Cc1c[nH]c2ccccc12)C(N)=O
B6: des(1)-Ac-[D-Tyr2,Glu3,Thr5,Phe(4Cl)6,AzaGly7,Arg(Me)9,Trp10]MS10 (peptide)
peptide: Ac-[dY]ENT[Phe(4-Cl)][azaGly]L[Arg(Me)]W-NH2
SMILES: CNC(=N)NCCC[C@H](NC(=O)[C@H](CC(C)C)NC(=O)NNC(=O)[C@H](Cc1ccc(Cl)cc1)NC(=O)[C@@H](NC(=O)[C@H](CC(N)=O)NC(=O)[C@H](CCC(=O)O)NC(=O)[C@@H](Cc1ccc(O)cc1)NC(C)=O)[C@@H](C)O)C(=O)N[C@@H](Cc1c[nH]c2ccccc12)C(N)=O
B7: des(1)-Ac-[D-Tyr2,Lys3,Thr5,Phe(3F)6,AzaGly7,Arg(Me)9,Trp10]MS10 (peptide)
peptide: Ac-[dY]KNT[Phe(3-F)][azaGly]L[Arg(Me)]W-NH2
SMILES: CNC(=N)NCCC[C@H](NC(=O)[C@H](CC(C)C)NC(=O)NNC(=O)[C@H](Cc1cccc(F)c1)NC(=O)[C@@H](NC(=O)[C@H](CC(N)=O)NC(=O)[C@H](CCCCN)NC(=O)[C@@H](Cc1ccc(O)cc1)NC(C)=O)[C@@H](C)O)C(=O)N[C@@H](Cc1c[nH]c2ccccc12)C(N)=O
B8: des(1)-Ac-[D-Tyr2,Ser3,Thr5,AzaGly7,Arg(Me)9,Trp10]MS10 (peptide)
peptide: Ac-[dY]SNTF[azaGly]L[Arg(Me)]W-NH2
SMILES: CNC(=N)NCCC[C@H](NC(=O)[C@H](CC(C)C)NC(=O)NNC(=O)[C@H](Cc1ccccc1)NC(=O)[C@@H](NC(=O)[C@H](CC(N)=O)NC(=O)[C@H](CO)NC(=O)[C@@H](Cc1ccc(O)cc1)NC(C)=O)[C@@H](C)O)C(=O)N[C@@H](Cc1c[nH]c2ccccc12)C(N)=O
B9: des(1)-Ac-[D-Tyr2,Glu3,Thr5,AzaGly7,Arg(Me)9,Trp10]MS10 (peptide)
peptide: Ac-[dY]ENTF[azaGly]L[Arg(Me)]W-NH2
SMILES: CNC(=N)NCCC[C@H](NC(=O)[C@H](CC(C)C)NC(=O)NNC(=O)[C@H](Cc1ccccc1)NC(=O)[C@@H](NC(=O)[C@H](CC(N)=O)NC(=O)[C@H](CCC(=O)O)NC(=O)[C@@H](Cc1ccc(O)cc1)NC(C)=O)[C@@H](C)O)C(=O)N[C@@H](Cc1c[nH]c2ccccc12)C(N)=O
B10: des(1)-Ac-[D-Tyr2,Hyp3,Thr5,Phe(2F)6,AzaGly7,Arg(Me)9,Trp10]MS10 (peptide)
peptide: Ac-[dY][Hyp]NT[Phe(2-F)][azaGly]L[Arg(Me)]W-NH2
SMILES: CNC(=N)NCCC[C@H](NC(=O)[C@H](CC(C)C)NC(=O)NNC(=O)[C@H](Cc1ccccc1F)NC(=O)[C@@H](NC(=O)[C@H](CC(N)=O)NC(=O)[C@@H]1C[C@@H](O)CN1C(=O)[C@@H](Cc1ccc(O)cc1)NC(C)=O)[C@@H](C)O)C(=O)N[C@@H](Cc1c[nH]c2ccccc12)C(N)=O
B11: des(1)-Ac-[D-Tyr2,Lys3,Thr5,Phe(4Cl)6,AzaGly7,Arg(Me)9,Trp10]MS10 (peptide)
peptide: Ac-[dY]KNT[Phe(4-Cl)][azaGly]L[Arg(Me)]W-NH2
SMILES: CNC(=N)NCCC[C@H](NC(=O)[C@H](CC(C)C)NC(=O)NNC(=O)[C@H](Cc1ccc(Cl)cc1)NC(=O)[C@@H](NC(=O)[C@H](CC(N)=O)NC(=O)[C@H](CCCCN)NC(=O)[C@@H](Cc1ccc(O)cc1)NC(C)=O)[C@@H](C)O)C(=O)N[C@@H](Cc1c[nH]c2ccccc12)C(N)=O
B12: des(1)-Ac-[D-Tyr2,β-Ala3,Thr5,AzaGly7,Arg(Me)9,Trp10]MS10 (peptide)
peptide: Ac-[dY][βAla]NTF[azaGly]L[Arg(Me)]W-NH2
SMILES: CNC(=N)NCCC[C@H](NC(=O)[C@H](CC(C)C)NC(=O)NNC(=O)[C@H](Cc1ccccc1)NC(=O)[C@@H](NC(=O)[C@H](CC(N)=O)NC(=O)CCNC(=O)[C@@H](Cc1ccc(O)cc1)NC(C)=O)[C@@H](C)O)C(=O)N[C@@H](Cc1c[nH]c2ccccc12)C(N)=O
B13: des(1)-Ac-[D-Tyr2,D-Trp3,Thr5,Phe(2F)6,AzaGly7,Arg(Me)9,Trp10]MS10 (peptide)
peptide: Ac-[dY][dW]NT[Phe(2-F)][azaGly]L[Arg(Me)]W-NH2
SMILES: CNC(=N)NCCC[C@H](NC(=O)[C@H](CC(C)C)NC(=O)NNC(=O)[C@H](Cc1ccccc1F)NC(=O)[C@@H](NC(=O)[C@H](CC(N)=O)NC(=O)[C@@H](Cc1c[nH]c2ccccc12)NC(=O)[C@@H](Cc1ccc(O)cc1)NC(C)=O)[C@@H](C)O)C(=O)N[C@@H](Cc1c[nH]c2ccccc12)C(N)=O
B14: des(1)-Ac-[D-Tyr2,Lys3,Thr5,Phe(2F)6,AzaGly7,Arg(Me)9,Trp10]MS10 (peptide)
peptide: Ac-[dY]KNT[Phe(2-F)][azaGly]L[Arg(Me)]W-NH2
SMILES: CNC(=N)NCCC[C@H](NC(=O)[C@H](CC(C)C)NC(=O)NNC(=O)[C@H](Cc1ccccc1F)NC(=O)[C@@H](NC(=O)[C@H](CC(N)=O)NC(=O)[C@H](CCCCN)NC(=O)[C@@H](Cc1ccc(O)cc1)NC(C)=O)[C@@H](C)O)C(=O)N[C@@H](Cc1c[nH]c2ccccc12)C(N)=O
B15: des(1)-Ac-[D-Tyr2,Pzc(2)3,Thr5,AzaGly7,Arg(Me)9,Trp10]MS10 (peptide)
peptide: Ac-[dY][Pzc(2)]NTF[azaGly]L[Arg(Me)]W-NH2
B16: des(1)-Ac-[D-Tyr2,Glu3,Thr5,Phe(3F)6,AzaGly7,Arg(Me)9,Trp10]MS10 (peptide)
peptide: Ac-[dY]ENT[Phe(3-F)][azaGly]L[Arg(Me)]W-NH2
SMILES: CNC(=N)NCCC[C@H](NC(=O)[C@H](CC(C)C)NC(=O)NNC(=O)[C@H](Cc1cccc(F)c1)NC(=O)[C@@H](NC(=O)[C@H](CC(N)=O)NC(=O)[C@H](CCC(=O)O)NC(=O)[C@@H](Cc1ccc(O)cc1)NC(C)=O)[C@@H](C)O)C(=O)N[C@@H](Cc1c[nH]c2ccccc12)C(N)=O
B17: des(1)-Ac-[D-Tyr2,Trp3,Thr5,Phe(2F)6,AzaGly7,Arg(Me)9,Trp10]MS10 (peptide)
peptide: Ac-[dY]WNT[Phe(2-F)][azaGly]L[Arg(Me)]W-NH2
SMILES: CNC(=N)NCCC[C@H](NC(=O)[C@H](CC(C)C)NC(=O)NNC(=O)[C@H](Cc1ccccc1F)NC(=O)[C@@H](NC(=O)[C@H](CC(N)=O)NC(=O)[C@H](Cc1c[nH]c2ccccc12)NC(=O)[C@@H](Cc1ccc(O)cc1)NC(C)=O)[C@@H](C)O)C(=O)N[C@@H](Cc1c[nH]c2ccccc12)C(N)=O
B18: des(1)-Ac-[D-Tyr2,Ala3,Thr5,AzaGly7,Arg(Me)9,Trp10]MS10 (peptide)
peptide: Ac-[dY]ANTF[azaGly]L[Arg(Me)]W-NH2
SMILES: CNC(=N)NCCC[C@H](NC(=O)[C@H](CC(C)C)NC(=O)NNC(=O)[C@H](Cc1ccccc1)NC(=O)[C@@H](NC(=O)[C@H](CC(N)=O)NC(=O)[C@H](C)NC(=O)[C@@H](Cc1ccc(O)cc1)NC(C)=O)[C@@H](C)O)C(=O)N[C@@H](Cc1c[nH]c2ccccc12)C(N)=O
B19: des(1)-Ac-[D-Tyr2,D-Trp3,Thr5,Phe(4Cl)6,AzaGly7,Arg(Me)9,Trp10]MS10 (peptide)
peptide: Ac-[dY][dW]NT[Phe(4-Cl)][azaGly]L[Arg(Me)]W-NH2
SMILES: CNC(=N)NCCC[C@H](NC(=O)[C@H](CC(C)C)NC(=O)NNC(=O)[C@H](Cc1ccc(Cl)cc1)NC(=O)[C@@H](NC(=O)[C@H](CC(N)=O)NC(=O)[C@@H](Cc1c[nH]c2ccccc12)NC(=O)[C@@H](Cc1ccc(O)cc1)NC(C)=O)[C@@H](C)O)C(=O)N[C@@H](Cc1c[nH]c2ccccc12)C(N)=O

Square brackets hold non-standard residues; d marks the D form. Primed or numbered codes have the meaning given here. * marks the point of attachment. Phe(4-Cl) = N[C@@H](Cc1ccc(Cl)cc1)C(=O)O; Phe(3-F) = N[C@@H](Cc1cccc(F)c1)C(=O)O; Pzc(2) = piperazine-2-carboxylic acid; Phe(2-F) = N[C@@H](Cc1ccccc1F)C(=O)O; Arg(Me) = CNC(=N)NCCC[C@H](N)C(=O)O; Hyp = O=C(O)[C@@H]1C[C@@H](O)CN1; Decanoyl = CCCCCCCCCC(=O)*; azaGly = NNC(=O)O; βAla = NCCC(=O)O

The test deals with human OT7T175 (metastin receptor) (human) (UniProt Q969F8). In words: cell-based or functional assay.
Chain of human OT7T175 (metastin receptor) (human) (Q969F8 whole entry L364H): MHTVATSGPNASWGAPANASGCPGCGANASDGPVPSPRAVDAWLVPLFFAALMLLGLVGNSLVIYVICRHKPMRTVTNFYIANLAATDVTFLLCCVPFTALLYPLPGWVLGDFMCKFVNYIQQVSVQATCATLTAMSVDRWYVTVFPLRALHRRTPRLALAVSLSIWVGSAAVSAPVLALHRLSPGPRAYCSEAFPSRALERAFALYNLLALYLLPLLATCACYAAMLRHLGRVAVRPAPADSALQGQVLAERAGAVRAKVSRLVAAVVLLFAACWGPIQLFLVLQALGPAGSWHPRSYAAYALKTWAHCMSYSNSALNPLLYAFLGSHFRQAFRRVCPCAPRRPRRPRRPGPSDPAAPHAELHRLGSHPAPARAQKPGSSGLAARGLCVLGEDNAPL
B1: the intracellular Ca ion level-increasing activity [specific activity to Metastin (1-54)] (relative to Metastin (1-54)) stood at 3.5.
Turning to B2, the intracellular Ca ion level-increasing activity [specific activity to Metastin (1-54)] (relative to Metastin (1-54)) was determined as 3.4.
Molecule B3 displayed an intracellular Ca ion level-increasing activity [specific activity to Metastin (1-54)] (relative to Metastin (1-54)) of 3.
For the molecule B4, the intracellular Ca ion level-increasing activity [specific activity to Metastin (1-54)] (relative to Metastin (1-54)) came out at 7.2.
The same measure for B5: 1.
With B6, the intracellular Ca ion level-increasing activity [specific activity to Metastin (1-54)] (relative to Metastin (1-54)) was 1.9.
Next, B7: 2.4.
The same measure for B8: 2.4.
B9: the intracellular Ca ion level-increasing activity [specific activity to Metastin (1-54)] (relative to Metastin (1-54)) came out at 2.2.
The molecule B10 returned an intracellular Ca ion level-increasing activity [specific activity to Metastin (1-54)] (relative to Metastin (1-54)) of 6.4.
Regarding B11, the intracellular Ca ion level-increasing activity [specific activity to Metastin (1-54)] (relative to Metastin (1-54)) was 1.8.
Molecule B12 had an intracellular Ca ion level-increasing activity [specific activity to Metastin (1-54)] (relative to Metastin (1-54)) of 2.6.
Regarding B13, the intracellular Ca ion level-increasing activity [specific activity to Metastin (1-54)] (relative to Metastin (1-54)) is 0.5.
Consider B14, for which the intracellular Ca ion level-increasing activity [specific activity to Metastin (1-54)] (relative to Metastin (1-54)) turned out to be 3.1.
On to B15, for which the intracellular Ca ion level-increasing activity [specific activity to Metastin (1-54)] (relative to Metastin (1-54)) came to 1.7.
The same measure for B16: 2.7; for B17: 1.5; for B18: 2.3.
The molecule B19 yielded an intracellular Ca ion level-increasing activity [specific activity to Metastin (1-54)] (relative to Metastin (1-54)) of 0.4.
